Literature values as cited in paper PMC9147092.
Where two headings read alike, the source gives them in different places.

Key:
[1] = target: BiP (Homo sapiens) (UniProt P11021)
[2] = target: BiP (Homo sapiens) (UniProt P11021); remark: listed apart in the source
[3] = target: BiP (Homo sapiens) (UniProt P11021); remark: listed apart in the source
[4] = target: ERdj2 (Homo sapiens) (UniProt Q9UGP8)
Sequence of UniProt Q9UGP8 (Q9UGP8 whole entry): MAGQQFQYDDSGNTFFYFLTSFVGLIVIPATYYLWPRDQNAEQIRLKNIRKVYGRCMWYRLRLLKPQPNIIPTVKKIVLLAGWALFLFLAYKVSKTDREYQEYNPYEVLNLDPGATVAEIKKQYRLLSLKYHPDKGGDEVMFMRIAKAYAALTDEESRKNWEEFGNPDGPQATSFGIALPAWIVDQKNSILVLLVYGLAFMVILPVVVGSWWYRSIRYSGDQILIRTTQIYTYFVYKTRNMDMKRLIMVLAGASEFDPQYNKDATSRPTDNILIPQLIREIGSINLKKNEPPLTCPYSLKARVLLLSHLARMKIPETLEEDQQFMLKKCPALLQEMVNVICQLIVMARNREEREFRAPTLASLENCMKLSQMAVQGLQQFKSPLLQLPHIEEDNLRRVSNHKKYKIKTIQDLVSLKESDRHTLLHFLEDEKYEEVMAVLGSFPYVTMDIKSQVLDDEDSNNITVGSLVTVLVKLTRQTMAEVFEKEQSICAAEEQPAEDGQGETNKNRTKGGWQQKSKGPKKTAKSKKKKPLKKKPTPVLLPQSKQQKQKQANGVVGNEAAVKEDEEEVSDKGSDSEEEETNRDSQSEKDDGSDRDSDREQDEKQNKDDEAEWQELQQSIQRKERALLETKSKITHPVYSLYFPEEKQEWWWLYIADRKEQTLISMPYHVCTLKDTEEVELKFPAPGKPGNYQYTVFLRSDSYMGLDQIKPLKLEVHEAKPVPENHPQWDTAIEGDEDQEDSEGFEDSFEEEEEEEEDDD

Sequence of UniProt P11021 (P11021 19-654): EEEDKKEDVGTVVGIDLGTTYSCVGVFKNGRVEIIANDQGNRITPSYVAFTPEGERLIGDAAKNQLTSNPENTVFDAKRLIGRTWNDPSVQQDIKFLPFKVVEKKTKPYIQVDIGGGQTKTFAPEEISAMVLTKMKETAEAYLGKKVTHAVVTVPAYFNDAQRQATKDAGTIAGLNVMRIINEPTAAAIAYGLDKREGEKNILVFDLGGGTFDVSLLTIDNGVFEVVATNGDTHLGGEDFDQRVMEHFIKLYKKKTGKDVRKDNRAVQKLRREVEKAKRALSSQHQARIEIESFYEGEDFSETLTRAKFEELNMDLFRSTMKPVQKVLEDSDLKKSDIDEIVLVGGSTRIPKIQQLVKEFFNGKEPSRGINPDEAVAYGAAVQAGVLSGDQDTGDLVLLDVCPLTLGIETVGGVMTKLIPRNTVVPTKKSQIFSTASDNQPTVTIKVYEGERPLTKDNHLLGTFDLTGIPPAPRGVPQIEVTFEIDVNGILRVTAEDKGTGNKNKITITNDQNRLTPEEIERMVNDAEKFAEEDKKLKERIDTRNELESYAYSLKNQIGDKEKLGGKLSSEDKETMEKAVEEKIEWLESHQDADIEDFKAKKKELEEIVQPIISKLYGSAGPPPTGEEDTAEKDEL

In the case of ERdj1 (from UniProt Q96KC8), the Kd [1] is given as 570 nM.
For ERdj6 (from UniProt Q13217), the Kd [2] is given as 5000 nM.
In the case of “PERK luminal domain (from UniProt Q9NZJ5)”, the Kd [3] is listed as 830 nM.
For Sec62 (from UniProt Q99442), the Kd [4] is listed as 5 nM.
